Measurements from paper PMC5590901.

What was measured:
[1] = target: T1, orexin receptor 1 (OX1R) (human (endogenous in HepG2)) (UniProt O43613)
T1 sequence: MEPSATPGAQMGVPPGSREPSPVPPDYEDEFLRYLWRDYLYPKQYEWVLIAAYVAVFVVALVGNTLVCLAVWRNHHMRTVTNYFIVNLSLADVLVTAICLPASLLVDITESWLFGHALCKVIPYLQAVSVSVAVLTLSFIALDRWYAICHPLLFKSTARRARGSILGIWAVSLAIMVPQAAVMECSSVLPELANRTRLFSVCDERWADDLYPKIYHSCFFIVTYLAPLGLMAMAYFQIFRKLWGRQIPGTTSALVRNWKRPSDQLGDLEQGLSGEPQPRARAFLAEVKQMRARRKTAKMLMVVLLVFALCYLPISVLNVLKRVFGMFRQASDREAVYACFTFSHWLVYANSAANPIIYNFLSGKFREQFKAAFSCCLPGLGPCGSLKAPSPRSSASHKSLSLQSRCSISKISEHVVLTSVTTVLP

[2] = target: T1, orexin receptor 1 (OX1R) (human (endogenous in HepG2)); remark: listed apart in the source
[3] = target: T1, orexin receptor 1 (OX1R) (human (endogenous in HepG2)); remark: listed apart in the source

LDHA mRNA (real-time PCR) in HepG2 cells, 10^-7 M orexin A for 2 h, fold against control; dampened by the OX1R inhibitor SB334867 (10^-6 M) [1]: 0.5 fold
PDK1 mRNA (real-time PCR) in HepG2 cells, 10^-7 M orexin A for 2 h, fold against control; dampened by the OX1R inhibitor SB334867 (10^-6 M) [1]: 0.53 fold
cellular ATP content in HepG2 cells, orexin A 10^-9 to 10^-7 M for 2 h, fold of control; abrogated by the OX1R inhibitor SB334867 (10^-6 M) [2]: 3.03 fold
GLUT1 protein expression (western blot) in HepG2 cells, orexin A 10^-9 to 10^-7 M for 2 h, fold of untreated cells; blocked by the OX1R inhibitor SB334867 (10^-6 M) [3]: 2.43 fold
glucose uptake (2-deoxy-D-[3H]glucose) in HepG2 cells, orexin A 10^-9 to 10^-7 M, fold of control; blocked by the OX1R inhibitor SB334867 (10^-6 M) [3]: 1.71 fold
B1: Orexin A (peptide)
peptide: QPLPDCCRQKTCSCRLYELLHGAGNHAAGILTL
